Measurements reported in patent US20120316071A1 (published 2012).
Changes are numbered by the printed parent chain. Numbers in names are those of the source.

Columns and labels:
[1] = target: T1, rHuman Erythropoietin R/Fc Chimera, CF (R&D Systems Cat#963-ER) (human, UniProt P19235 25-250); experiment: ECL Multispot (MSD), antigen spotted; Fab 50 (µM); blank 386
T1 construct: Bought recombinant protein; also called EPO R; EPO R/Fc; Fc part of the bought chimera not given
T1 sequence (looked up): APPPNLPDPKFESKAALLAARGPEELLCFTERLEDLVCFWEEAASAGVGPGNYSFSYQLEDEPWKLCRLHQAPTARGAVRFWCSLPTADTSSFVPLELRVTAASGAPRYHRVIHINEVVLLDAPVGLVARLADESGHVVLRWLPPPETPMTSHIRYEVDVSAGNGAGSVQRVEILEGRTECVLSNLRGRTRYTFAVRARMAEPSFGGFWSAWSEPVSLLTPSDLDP

[2] = target: T2, rHuman HGF R/c-MET/Fc Chimera, CF (R&D Systems Cat#358-MT/CF) (human, UniProt P08581 25-932); experiment: as above
T2 construct: Bought recombinant protein; also called HGF R/Fc; Fc part of the bought chimera not given

[3] = target: T3, rHuman Notch-1/Fc Chimera, CF (R&D Systems Cat#3647-TK) (human, UniProt P46531 19-526); experiment: as above
T3 construct: Bought recombinant protein; Fc part of the bought chimera not given

[4] = target: T4, rHuman CD44/Fc Chimera, CF (R&D Systems Cat#3660-CD) (human, UniProt P16070 21-220); experiment: as above
T4 construct: Bought recombinant protein; Fc part of the bought chimera not given

[5] = target: T5, rHuman IGF-1 sR, CF (R&D Systems Cat#391-GR) (human, UniProt P08069 31-932); experiment: as above
T5 construct: Bought recombinant soluble receptor; also called insulin-like growth factor-1 soluble receptor

[6] = target: T6, Recombinant Human DLL4 (R&D Systems Cat#1506-D4/CF) (human, UniProt Q9NR61 27-524); experiment: Multispot ECL (MSD), antigen spotted on plate, Fab 7.8 nM; blank spot 316
T6 construct: Bought recombinant protein; also called rHuman DLL4; delta-like protein 4

[7] = target: T7, rHuman Notch-1/Fc Chimera, CF (R&D Systems Cat#3647-TK) (human, UniProt P46531 19-526); experiment: as above
T7 construct: Bought recombinant protein; Fc part of the bought chimera not given

[8] = target: T8, rHuman IGF-1 sR, CF (R&D Systems Cat#391-GR) (human, UniProt P08069 31-932); experiment: as above
T8 construct: Bought recombinant soluble receptor; also called insulin-like growth factor-1 soluble receptor

[9] = target: T9, rHuman Erythropoietin R/Fc Chimera, CF (R&D Systems Cat#963-ER) (human, UniProt P19235 25-250); experiment: as above
T9 construct: Bought recombinant protein; also called EPO R/Fc; Epo R; Fc part of the bought chimera not given
T9 sequence (looked up): T1 sequence (looked up)

[10] = target: T10, Recombinant Human DLL4 (R&D Systems Cat#1506-D4/CF) (human, UniProt Q9NR61 27-524); experiment: Multispot ECL (MSD) titration; antigen spotted on plate; Fab 1570 nM; blank spot 866
T10 construct: Bought recombinant protein; also called delta-like protein 4; rHuman DLL4

[11] = target: T11, rHuman Erythropoietin R/Fc Chimera, CF (R&D Systems Cat#963-ER) (human, UniProt P19235 25-250); experiment: Multispot ECL (MSD) assay, antigen spotted on plate, Fab at 1.56 µM; blank spot 4357
T11 construct: Bought recombinant protein; also called EPO R/Fc; Epo R; Fc part of the bought chimera not given
T11 sequence (looked up): T1 sequence (looked up)

[12] = target: T12, Recombinant Human DLL4 (R&D Systems Cat#1506-D4/CF) (human, UniProt Q9NR61 27-524); experiment: as above
T12 construct: Bought recombinant protein; also called delta-like protein 4; rHuman DLL4

[13] = target: T13, rHuman ErbB2/Fc Chimera, CF (R&D Systems Cat#1129-ER) (human, UniProt P04626 23-652); experiment: as above
T13 construct: Bought recombinant protein; also called human epidermal growth factor 2 receptor (ErbB2); Fc part of the bought chimera not given

[14] = target: T14, rHuman EGF R/Fc Chimera, CF (R&D Systems Cat#344-ER) (human, UniProt P00533 25-645); experiment: as above
T14 construct: Bought recombinant protein; also called epidermal growth factor receptor (EGF R); Fc part of the bought chimera not given

[15] = target: T15, rHuman HGF R/c-MET/Fc Chimera, CF (R&D Systems Cat#358-MT/CF) (human, UniProt P08581 25-932); experiment: as above
T15 construct: Bought recombinant protein; also called HGF R/Fc; hepatocyte growth factor receptor (HGF R/c-Met); Fc part of the bought chimera not given

[16] = target: T16, rHuman Notch-1/Fc Chimera, CF (R&D Systems Cat#3647-TK) (human, UniProt P46531 19-526); experiment: as above
T16 construct: Bought recombinant protein; Fc part of the bought chimera not given

[17] = target: T17, rHuman CD44/Fc Chimera, CF (R&D Systems Cat#3660-CD) (human, UniProt P16070 21-220); experiment: as above
T17 construct: Bought recombinant protein; Fc part of the bought chimera not given

[18] = target: T18, rHuman IGF-1 sR, (IGF-1 sR), CF (R&D Systems Cat#391-GR) (human, UniProt P08069 31-932); experiment: as above
T18 construct: Bought recombinant soluble receptor; also called insulin-like growth factor-1 soluble receptor

[19] = target: T19, rHuman P-Cadherin/Fc Chimera, CF (R&D Systems Cat#861-PC) (human, UniProt P22223 108-654); experiment: as above
T19 construct: Bought recombinant protein; Fc part of the bought chimera not given

B1: Fab VH1-46_IGHD6-6*01_IGHJ1*01 S102A/S103P/S104F (APF) & L6_IGKJ1*01 (Fab, V domains shown)
VH: QVQLVQSGAEVKKPGASVKVSCKASGYTFTSYYMHWVRQAPGQGLEWMGIINPSGGSTSYAQKFQGRVTMTRDTSTSTVYMELSSLRSEDTAVYYCAREEYAPFSAEYFQHWGQGTLVTVSS
VL: not shown
notes: Tested as a Fab made in E. coli: VH cloned in Plasmid A (CH1 constant region, His6 and Flag tags), VL in Plasmid C (kappa constant region); also called H:APF & L:wt; APF triple mutant
With B1 the ECL signal [1] was 768, the ECL signal [2] was 525 and the ECL signal [3] was 509. For the same binder, the ECL signal [4] was 557 and the ECL signal [5] was 558.

B2: Fab VH1-46_IGHD6-13*01_IGHJ4*01 & B3_IGKJ1*01 (Fab, V domains shown)
VH: B1 VH with E100G, A102S, P103S, F104S, S105W, A106Y, E107D, Q110D, H111Y
VL: not shown
notes: Germline Fab made in E. coli; VH was cloned into Plasmid A (CH1, His6 and Flag tags) and the kappa VL into Plasmid C (kappa CL)
With B2 the ECL signal [6] was 407, the ECL signal [7] was 486 and the ECL signal [8] was 353. It also gave an ECL signal [9] of 6760.

B3: Fab VH1-46_IGHD3-10*01_IGHJ4*01 & O1_IGKJ1*01 (Fab, V domains shown)
VH: QVQLVQSGAEVKKPGASVKVSCKASGYTFTSYYMHWVRQAPGQGLEWMGIINPSGGSTSYAQKFQGRVTMTRDTSTSTVYMELSSLRSEDTAVYYCAREYYYGSGSYYNDYFDYWGQGTLVTVSS
VL: DIVMTQTPLSLPVTPGEPASISCRSSQSLLDSDDGNTYLDWYLQKPGQSPQLLIYTLSYRASGVPDRFSGSGSGTDFTLKISRVEAEDVGVYYCMQRIEFPSWTFGQGTKVEIKR
notes: Germline library Fab expressed in E. coli; VH was cloned into Plasmid A (CH1 constant region, His6 and Flag tags); The kappa VL was cloned into Plasmid C (kappa CL)
Work on B3 yielded an ECL signal [10] of 2700.

B4: Fab VH1-46_IGHD7-27*01_IGHJ2*01 & L6_IGKJ1*01 (Fab, V domains shown)
VH: QVQLVQSGAEVKKPGASVKVSCKASGYTFTSYYMHWVRQAPGQGLEWMGIINPSGGSTSYAQKFQGRVTMTRDTSTSTVYMELSSLRSEDTAVYYCARANWGYWYFDLWGRGTLVTVSS
VL: not shown
notes: Germline Fab made in E. coli; VH was cloned in Plasmid A (CH1 constant region, His6 and Flag tags) and the kappa VL in Plasmid C (kappa CL); Only the variable domains are tied to this Fab by name
For B4, the ECL signal [11] was 9480, the ECL signal [12] was 10900 and the ECL signal [13] was 7580. The ECL signal [14] was 7830, the ECL signal [15] was 10300 and the ECL signal [16] was 9450. The ECL signal [17] was 7600, the ECL signal [18] was 6910 and the ECL signal [19] was 15000.
